The experiment has as its target truncated MoPrP(89–230) (mouse, UniProt P04925 89-230). Nature of the experiment: ELISA. In general terms: In an ELISA, binding on a coated surface is turned into a signal by an enzyme label.

B1: mouse (Mo) Dpl (26–155) (domain or fragment)
chain: ARGIKHRFKWNRKVLPSSGGQITEARVAENRPGAFIKQGRKLDIDFGAEGNRYYAANYWQFPDGIYYEGCSEANVTKEMLVTSCVNATQAANQAEFSREKQDSKLHQRVLWRLIKEICSAKHCDFWLERG
On to B1, for which the binding result is “binds”.
